# Where no end group is shown, it is not given here.
# T1: EBOV NP C-terminal portion (360–739) (Ebola virus (EBOV), UniProt P18272 360-739)
# T1 sequence: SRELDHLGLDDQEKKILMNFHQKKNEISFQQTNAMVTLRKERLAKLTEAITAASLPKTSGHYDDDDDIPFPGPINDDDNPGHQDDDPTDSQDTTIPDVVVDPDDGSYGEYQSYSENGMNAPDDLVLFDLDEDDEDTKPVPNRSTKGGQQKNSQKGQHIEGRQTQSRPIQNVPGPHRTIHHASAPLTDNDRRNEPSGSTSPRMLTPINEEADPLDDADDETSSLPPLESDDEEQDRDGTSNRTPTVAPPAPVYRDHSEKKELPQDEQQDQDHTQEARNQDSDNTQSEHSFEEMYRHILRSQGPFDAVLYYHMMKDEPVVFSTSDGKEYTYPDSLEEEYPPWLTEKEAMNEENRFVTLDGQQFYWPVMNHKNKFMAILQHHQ
# T2: MARV VP30 CTD (146–281) (Marburg virus (MARV), UniProt P35258 146-281)
# T2 sequence: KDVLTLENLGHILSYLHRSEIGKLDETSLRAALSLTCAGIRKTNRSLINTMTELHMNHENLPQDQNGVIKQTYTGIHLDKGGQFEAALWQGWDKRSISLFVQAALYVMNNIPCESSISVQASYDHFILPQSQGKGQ
# B1: biotinylated EBOV NP peptide 560–617 (peptide)
# chain: RMLTPINEEADPLDDADDETSSLPPLESDDEEQDRDGTSNRTPTVAPPAPVYRDHSEK
# modifications: not fully specified (N-terminus); also: biotinylated (position not given here)
# B2: Ebola virus VP30 C-terminal domain (amino acids 139–288) (domain or fragment)
# chain: GPKITLLTLIKTAEHWARQDIRTIEDSKLRALLTLCAVMTRKFSKSQLSLLCETHLRREGLGQDQAEPVLEVYQRLHSDKGGSFEAALWQQWDRQSLIMFITAFLNIALQLPCESSAVVVSGLRTLVPQSDNEEASTNPGTCSWSDEGTP
# What was measured:
# [1] = target: MARV NP 552-579-VP30 146–281 fusion protein (Marburg virus (MARV)) (UniProt P27588); assay: crystal structure
# [2] = target: B2; assay: BLI; settings: both partners purified
# [3] = target: T1, EBOV NP C-terminal portion (360–739); assay: ITC; settings: both partners purified
# [4] = target: B2; assay: crystal structure; settings: both partners purified
# MARV VP30 CTD (146–281) = target: T2, MARV VP30 CTD (146–281); assay: ITC; settings: both partners purified
molecule,measurement,setting,value
MARV NP 552-579-VP30 146–281 fusion protein (from UniProt P27588;P35258),stoichiometry N,[1],2
B1,binding result,[2],binds
B2,Kd,[3],21.3 µM
"RTPTVAPPAPVYRDHSEKKELPQDEQQD [EBOV NP peptide (600–627), as the N-terminal part of the NP-VP30 fusion]",binding result,[4],binds
EQGVDLPPPPLYAQEKRQ [MARV NP peptide (552–569) fused to T4 lysozyme],Kd,MARV VP30 CTD (146–281),14 µM
SSLPPLESDDEEQDRDGTSNRTPTVAPPAPVYRDHSEK (not fully specified (N-terminus); also: biotinylated (position not given here)) [biotinylated EBOV NP peptide 580–617],binding result,[2],binds

# Reference: paper PMC5068707 (PLoS Pathogens, 2016)
